Test results from patent US20150344570A1 (published 2015).

Tests used:
FcγRIIa R [1] = molecular target: T1, FcγRIIa R (human, UniProt P12318 34-217); test: SPR (Biacore), antibody captured via antigen peptide, FcγR as analyte
T1 construct: extracellular domain; Soluble His-tagged extracellular domain expressed in FreeStyle293 cells; analyte in Biacore; also called FcgRIIa R; FcgRIIaR; not shown: His tag attached to the C terminus
T1 sequence (looked up): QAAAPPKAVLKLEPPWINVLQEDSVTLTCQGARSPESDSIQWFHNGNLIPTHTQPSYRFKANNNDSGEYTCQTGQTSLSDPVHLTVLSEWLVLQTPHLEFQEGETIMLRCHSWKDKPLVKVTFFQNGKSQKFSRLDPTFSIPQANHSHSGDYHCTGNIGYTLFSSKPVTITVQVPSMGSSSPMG
Experimental: (§1) The heterodimerized antibodies He Abs in which one of the H chains was introduced with an alteration were assayed for their binding activities to each activating FcγR and inhibitory FcγR according to the method described in Example 4. […] The activating FcγRs in FIGS. 26, 27, 28, and 29 are FcγRIa, FcγRIIa (R), FcγRIIa (H), and FcγRIIIa, respectively.
(§2) Analysis of interaction between objective antibody and the FcγR was carried out using Biacore T100 (GE Healthcare). HBS-EP+ (GE Healthcare) was used as the running buffer, and the measurement temperature was set to 25° C. Chips produced by immobilizing the antigen peptide by the amine coupling method to a Series S Sencor Chip CM5 (GE Healthcare), or alternatively, chips produced by allowing preliminarily biotinylated antigen peptides to interact with and immobilize onto a Series S Sensor Chip SA (certified) (GE Healthcare) were used. Antibodies of interest were captured onto an antigen peptide-immobilized chip, and allowed to interact to each FcγR diluted with running buffer. To regenerate and repeatedly use the chip, the antibodies captured on the chip were washed off by reacting 10 mM glycine-HCl, pH 1.5.

FcγRIIb = molecular target: T2, FcγRIIb (human, UniProt P31994 43-217); test: as above
T2 construct: extracellular domain; Soluble His-tagged extracellular domain expressed in FreeStyle293 cells; analyte in Biacore; also called FcgRIIb; 2b; not shown: His tag attached to the C terminus
T2 sequence (looked up): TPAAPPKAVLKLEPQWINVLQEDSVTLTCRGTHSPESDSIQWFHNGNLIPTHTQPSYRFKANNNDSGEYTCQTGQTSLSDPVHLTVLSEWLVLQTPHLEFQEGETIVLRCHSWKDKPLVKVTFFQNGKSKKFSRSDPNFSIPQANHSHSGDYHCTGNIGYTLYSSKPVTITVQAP
Experimental: as §1, §2

FcγRIIa R [2] = molecular target: T1, FcγRIIa R; test: ratio of He/Con_2aR to He/Con_2b (binding to FcγRIIb as reference); SPR

B1: GpH7-A5/GpH7-B3 variant P329_06M/GpL16-k0 (antibody, human IgG1, kappa)
heavy 1: not shown
heavy 2: not shown
light: DIVMTQSPLSLPVTPGEPASISCQASESLVHSNRNTYLHWYLQKPGQSPQLLIYKVSNRFSGVPDRFSGSGSGTDFTLKISRVEAEDVGVYYCSQNTHVPPTFGQGTKVEIERTVAAPSVFIFPPSDEQLKSGTASVVCLLNNFYPREAKVQWKVDNALQSGNSQESVTEQDSKDSTYSLSSTLTLSKADYEKHKVYACEVTHQGLSSPVTKSFNRGEC
notes: Heterodimerized anti-glypican-3 IgG1 antibody; alteration only in the GpH7-B3 H chain; position in EU numbering; also called He Ab
In the case of B1, the “He/Con_2aR (IIaR binding relative to GpH7-A5/GpH7-B3/GpL16-k0)” value (FcγRIIa R [1]) is reported as 42.7 % of control (control = 100), the “He/Con_2b (IIb binding relative to GpH7-A5/GpH7-B3/GpL16-k0)” value (FcγRIIb) is reported as 29.1 % of control (control = 100) and the “He_2aR/2b (IIaR/IIb)” value (FcγRIIa R [2]) is reported as 1.47.

B2: GpH7-A5/GpH7-B3 variant P329_07I/GpL16-k0 (antibody, human IgG1, kappa)
heavy 1: not shown
heavy 2: not shown
light: DIVMTQSPLSLPVTPGEPASISCQASESLVHSNRNTYLHWYLQKPGQSPQLLIYKVSNRFSGVPDRFSGSGSGTDFTLKISRVEAEDVGVYYCSQNTHVPPTFGQGTKVEIERTVAAPSVFIFPPSDEQLKSGTASVVCLLNNFYPREAKVQWKVDNALQSGNSQESVTEQDSKDSTYSLSSTLTLSKADYEKHKVYACEVTHQGLSSPVTKSFNRGEC
notes: as for B1
B2 was tested, and the “He/Con_2aR (IIaR binding relative to GpH7-A5/GpH7-B3/GpL16-k0)” value (FcγRIIa R [1]) was 49.6 % of control (control = 100), the “He/Con_2b (IIb binding relative to GpH7-A5/GpH7-B3/GpL16-k0)” value (FcγRIIb) was 34.6 % of control (control = 100) and the “He_2aR/2b (IIaR/IIb)” value (FcγRIIa R [2]) was 1.44.

B3: GpH7-A5/GpH7-B3 variant P329_08L/GpL16-k0 (antibody, human IgG1, kappa)
heavy 1: not shown
heavy 2: not shown
light: DIVMTQSPLSLPVTPGEPASISCQASESLVHSNRNTYLHWYLQKPGQSPQLLIYKVSNRFSGVPDRFSGSGSGTDFTLKISRVEAEDVGVYYCSQNTHVPPTFGQGTKVEIERTVAAPSVFIFPPSDEQLKSGTASVVCLLNNFYPREAKVQWKVDNALQSGNSQESVTEQDSKDSTYSLSSTLTLSKADYEKHKVYACEVTHQGLSSPVTKSFNRGEC
notes: as for B1
For B3, the “He/Con_2aR (IIaR binding relative to GpH7-A5/GpH7-B3/GpL16-k0)” value (FcγRIIa R [1]) was 42.8 % of control (control = 100), the “He/Con_2b (IIb binding relative to GpH7-A5/GpH7-B3/GpL16-k0)” value (FcγRIIb) was 29.1 % of control (control = 100) and the “He_2aR/2b (IIaR/IIb)” value (FcγRIIa R [2]) was 1.47.

B4: GpH7-A5/GpH7-B3 variant P329_09D/GpL16-k0 (antibody, human IgG1, kappa)
heavy 1: not shown
heavy 2: not shown
light: DIVMTQSPLSLPVTPGEPASISCQASESLVHSNRNTYLHWYLQKPGQSPQLLIYKVSNRFSGVPDRFSGSGSGTDFTLKISRVEAEDVGVYYCSQNTHVPPTFGQGTKVEIERTVAAPSVFIFPPSDEQLKSGTASVVCLLNNFYPREAKVQWKVDNALQSGNSQESVTEQDSKDSTYSLSSTLTLSKADYEKHKVYACEVTHQGLSSPVTKSFNRGEC
notes: as for B1
B4 was tested, and the “He/Con_2aR (IIaR binding relative to GpH7-A5/GpH7-B3/GpL16-k0)” value (FcγRIIa R [1]) was 67.8 % of control (control = 100), the “He/Con_2b (IIb binding relative to GpH7-A5/GpH7-B3/GpL16-k0)” value (FcγRIIb) was 53.5 % of control (control = 100) and the “He_2aR/2b (IIaR/IIb)” value (FcγRIIa R [2]) was 1.27.

B5: GpH7-A5/GpH7-B3 variant P329_10E/GpL16-k0 (antibody, human IgG1, kappa)
heavy 1: not shown
heavy 2: not shown
light: DIVMTQSPLSLPVTPGEPASISCQASESLVHSNRNTYLHWYLQKPGQSPQLLIYKVSNRFSGVPDRFSGSGSGTDFTLKISRVEAEDVGVYYCSQNTHVPPTFGQGTKVEIERTVAAPSVFIFPPSDEQLKSGTASVVCLLNNFYPREAKVQWKVDNALQSGNSQESVTEQDSKDSTYSLSSTLTLSKADYEKHKVYACEVTHQGLSSPVTKSFNRGEC
notes: as for B1
For B5, the “He/Con_2aR (IIaR binding relative to GpH7-A5/GpH7-B3/GpL16-k0)” value (FcγRIIa R [1]) was 64.8 % of control (control = 100), the “He/Con_2b (IIb binding relative to GpH7-A5/GpH7-B3/GpL16-k0)” value (FcγRIIb) was 52.7 % of control (control = 100) and the “He_2aR/2b (IIaR/IIb)” value (FcγRIIa R [2]) was 1.23.

B6: GpH7-A5/GpH7-B3 variant P329_11K/GpL16-k0 (antibody, human IgG1, kappa)
heavy 1: not shown
heavy 2: not shown
light: DIVMTQSPLSLPVTPGEPASISCQASESLVHSNRNTYLHWYLQKPGQSPQLLIYKVSNRFSGVPDRFSGSGSGTDFTLKISRVEAEDVGVYYCSQNTHVPPTFGQGTKVEIERTVAAPSVFIFPPSDEQLKSGTASVVCLLNNFYPREAKVQWKVDNALQSGNSQESVTEQDSKDSTYSLSSTLTLSKADYEKHKVYACEVTHQGLSSPVTKSFNRGEC
notes: as for B1
With B6 the “He/Con_2aR (IIaR binding relative to GpH7-A5/GpH7-B3/GpL16-k0)” value (FcγRIIa R [1]) was 30.2 % of control (control = 100), the “He/Con_2b (IIb binding relative to GpH7-A5/GpH7-B3/GpL16-k0)” value (FcγRIIb) was 16.9 % of control (control = 100) and the “He_2aR/2b (IIaR/IIb)” value (FcγRIIa R [2]) was 1.79.

B7: GpH7-A5/GpH7-B3 variant P329_12R/GpL16-k0 (antibody, human IgG1, kappa)
heavy 1: not shown
heavy 2: not shown
light: DIVMTQSPLSLPVTPGEPASISCQASESLVHSNRNTYLHWYLQKPGQSPQLLIYKVSNRFSGVPDRFSGSGSGTDFTLKISRVEAEDVGVYYCSQNTHVPPTFGQGTKVEIERTVAAPSVFIFPPSDEQLKSGTASVVCLLNNFYPREAKVQWKVDNALQSGNSQESVTEQDSKDSTYSLSSTLTLSKADYEKHKVYACEVTHQGLSSPVTKSFNRGEC
notes: as for B1
With B7 the “He/Con_2aR (IIaR binding relative to GpH7-A5/GpH7-B3/GpL16-k0)” value (FcγRIIa R [1]) was 29.3 % of control (control = 100), the “He/Con_2b (IIb binding relative to GpH7-A5/GpH7-B3/GpL16-k0)” value (FcγRIIb) was 17.6 % of control (control = 100) and the “He_2aR/2b (IIaR/IIb)” value (FcγRIIa R [2]) was 1.66.

B8: GpH7-A5/GpH7-B3 variant P329_13S/GpL16-k0 (antibody, human IgG1, kappa)
heavy 1: not shown
heavy 2: not shown
light: DIVMTQSPLSLPVTPGEPASISCQASESLVHSNRNTYLHWYLQKPGQSPQLLIYKVSNRFSGVPDRFSGSGSGTDFTLKISRVEAEDVGVYYCSQNTHVPPTFGQGTKVEIERTVAAPSVFIFPPSDEQLKSGTASVVCLLNNFYPREAKVQWKVDNALQSGNSQESVTEQDSKDSTYSLSSTLTLSKADYEKHKVYACEVTHQGLSSPVTKSFNRGEC
notes: as for B1
For B8, the “He/Con_2aR (IIaR binding relative to GpH7-A5/GpH7-B3/GpL16-k0)” value (FcγRIIa R [1]) was 61.5 % of control (control = 100), the “He/Con_2b (IIb binding relative to GpH7-A5/GpH7-B3/GpL16-k0)” value (FcγRIIb) was 41 % of control (control = 100) and the “He_2aR/2b (IIaR/IIb)” value (FcγRIIa R [2]) was 1.5.
